Experimental data as given in paper doi:10.1101/2022.11.01.514793.

Legend:
[1] = target: AdgH (Variovorax); experiment: cryo-EM structure
[2] = target: AdgI (Variovorax); experiment: cryo-EM structure
[3] = target: AdgH (Variovorax); experiment: SEC

stoichiometry N [1] | stoichiometry N [2] | stoichiometry N (AdgI:AdgH molar ratio) [3] | Substance
3 | – | – | AdgH (enzyme)
– | 3 | 1 | AdgI (enzyme)
